Data: patent US20240301071A1 (Alector, published 2024)

T1: Fc-tagged dog SIRPA (accession no. XP005634938) (dog, UniProt A0A8I3P880)
T1 sequence: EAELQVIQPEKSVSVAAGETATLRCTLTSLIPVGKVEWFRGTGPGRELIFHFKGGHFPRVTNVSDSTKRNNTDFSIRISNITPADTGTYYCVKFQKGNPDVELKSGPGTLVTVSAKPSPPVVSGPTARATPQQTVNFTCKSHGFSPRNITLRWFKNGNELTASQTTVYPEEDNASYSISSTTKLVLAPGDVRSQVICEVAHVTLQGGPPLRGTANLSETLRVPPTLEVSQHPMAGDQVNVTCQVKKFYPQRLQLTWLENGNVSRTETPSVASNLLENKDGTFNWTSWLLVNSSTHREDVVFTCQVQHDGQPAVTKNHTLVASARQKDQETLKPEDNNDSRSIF

T2: Fc-tagged marmoset SIRPA (accession no. JAB51896) (marmoset, UniProt U3F8F0 31-373)
T2 sequence: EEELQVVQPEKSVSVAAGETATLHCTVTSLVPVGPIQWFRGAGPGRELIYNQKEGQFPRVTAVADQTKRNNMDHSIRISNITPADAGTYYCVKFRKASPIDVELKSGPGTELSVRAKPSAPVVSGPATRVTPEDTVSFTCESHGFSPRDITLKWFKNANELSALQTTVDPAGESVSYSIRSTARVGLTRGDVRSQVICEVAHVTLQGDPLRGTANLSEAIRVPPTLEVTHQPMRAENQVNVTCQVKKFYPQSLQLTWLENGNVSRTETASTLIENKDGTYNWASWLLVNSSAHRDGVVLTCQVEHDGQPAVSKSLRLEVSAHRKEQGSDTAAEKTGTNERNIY

T3: rat SIRPA (rat, UniProt P97710 32-373, limits assumed)
T3 sequence (looked up): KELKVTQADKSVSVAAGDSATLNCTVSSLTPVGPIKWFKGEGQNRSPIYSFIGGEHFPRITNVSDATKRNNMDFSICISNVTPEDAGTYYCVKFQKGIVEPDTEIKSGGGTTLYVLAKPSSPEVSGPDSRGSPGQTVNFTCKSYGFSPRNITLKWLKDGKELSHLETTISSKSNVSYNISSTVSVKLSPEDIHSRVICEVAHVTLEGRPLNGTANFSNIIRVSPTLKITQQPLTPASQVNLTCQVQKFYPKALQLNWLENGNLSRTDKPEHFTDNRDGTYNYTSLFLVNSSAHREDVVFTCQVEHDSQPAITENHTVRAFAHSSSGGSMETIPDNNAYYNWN

T4: cynoSIRPA XPO15313153.1 (cynomolgus, UniProt A0A2K5VYQ9)
T4 construct: not tied one by one in the text; also called cynomolgus SIRPA; not shown: Fc or His tag
T4 sequence: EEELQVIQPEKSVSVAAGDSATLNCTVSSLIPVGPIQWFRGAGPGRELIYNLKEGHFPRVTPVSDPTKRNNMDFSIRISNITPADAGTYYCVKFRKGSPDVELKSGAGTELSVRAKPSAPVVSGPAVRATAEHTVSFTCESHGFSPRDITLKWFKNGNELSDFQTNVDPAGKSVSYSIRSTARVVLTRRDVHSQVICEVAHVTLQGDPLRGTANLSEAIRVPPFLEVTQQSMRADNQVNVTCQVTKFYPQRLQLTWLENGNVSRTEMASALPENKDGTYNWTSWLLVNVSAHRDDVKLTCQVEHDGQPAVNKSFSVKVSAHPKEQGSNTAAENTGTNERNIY


Key:
[1] = target: T5, human SIRPA on human macrophages (primary monocyte-derived macrophages; U937 line) (human, UniProt P78324 31-504); assay: cell-based or functional assay
T5 sequence (P78324 31-370): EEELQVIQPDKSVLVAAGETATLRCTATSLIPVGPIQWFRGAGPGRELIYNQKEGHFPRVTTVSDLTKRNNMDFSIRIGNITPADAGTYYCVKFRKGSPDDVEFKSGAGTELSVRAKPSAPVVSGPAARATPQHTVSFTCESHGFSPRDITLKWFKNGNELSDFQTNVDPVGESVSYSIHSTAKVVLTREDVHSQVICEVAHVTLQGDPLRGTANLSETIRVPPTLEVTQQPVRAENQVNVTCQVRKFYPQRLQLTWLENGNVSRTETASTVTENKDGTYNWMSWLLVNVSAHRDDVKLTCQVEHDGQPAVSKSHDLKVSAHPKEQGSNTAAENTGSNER

[2] = target: T5, human SIRPA on human macrophages …; assay: cell-based or functional assay; remark: listed apart in the source
[3] = target: T6, human SIRPA v1 on BWZ cells (BWZ-huSIRPA) (human, UniProt P78324 31-504); assay: flow cytometry titration on BWZ-huSIRPA cells, 4 C
T6 construct: also called BWZ cells overexpressing human SIRPA; BWZ-huSIRPA v1 cells
T6 sequence (P78324 31-504): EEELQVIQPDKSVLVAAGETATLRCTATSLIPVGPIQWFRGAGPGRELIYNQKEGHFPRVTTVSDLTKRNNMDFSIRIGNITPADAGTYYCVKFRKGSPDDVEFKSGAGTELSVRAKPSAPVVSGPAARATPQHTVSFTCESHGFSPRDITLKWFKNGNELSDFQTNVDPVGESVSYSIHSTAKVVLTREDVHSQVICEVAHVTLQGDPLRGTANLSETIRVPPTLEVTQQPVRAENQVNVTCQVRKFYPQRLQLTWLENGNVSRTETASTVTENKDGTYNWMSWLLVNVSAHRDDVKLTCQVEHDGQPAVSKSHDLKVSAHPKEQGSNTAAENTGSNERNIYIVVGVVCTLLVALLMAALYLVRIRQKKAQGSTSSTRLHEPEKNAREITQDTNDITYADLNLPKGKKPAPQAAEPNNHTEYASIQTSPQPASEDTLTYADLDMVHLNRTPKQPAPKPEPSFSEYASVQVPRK
Method: After addition of fluorescently labeled secondary antibody and brief washing steps, MFI values as a function of titrated antibody concentration was recorded via FACS analysis. […] Receptor bound antibodies were detected by staining cells with anti-human IgG PE secondary antibody. Curves were fit using nonlinear regression analysis with Graphpad Prism 6 software.

[4] = target: T1, Fc-tagged dog SIRPA (accession no. …); assay: ELISA, plate coated with Fc-tagged SIRPA
Method: (§1) In an ELISA assay, 96-well Immulon HBX plates were coated with His- or Fc-tagged SIRPA of a given species, as indicated, at 1 μg/mL in PBS overnight at 4C. Plates were blocked in 5% (w/v) bovine serum albumin in PBS for 1 hour, after which they were washed 3 times with PBS/0.05% Tween 20 (PBS/T). Anti-SIRPA antibodies were added to the plate in a dilution series and were incubated at room temperature for 2 hours, after which the unbound antibody was removed by washing with PBS/T. Horseradish peroxidase-conjugated anti-mouse IgG or anti-human kappa light chain (Jackson Immunoresearch) was then added to the wells and incubated for 30 minutes. Unbound antibody was removed by washing with PBS/T, after which bound antibody was detected using tetramethylbenzidine (TMB). The reaction was stopped with 2N H₂SO₄, after which the plates were read at A450.

[5] = target: T2, Fc-tagged marmoset SIRPA (accession no. …); assay: ELISA, plate coated with Fc-tagged SIRPA
Method: as §1

[6] = target: T7, histidine-tagged human SIRPA v1 (Novoprotein) (human, UniProt P78324 31-370, limits assumed); assay: BLI (Octet)
T7 construct: bought, soluble; also called huSIRPA; soluble huSIRPA; not shown: histidine tag
T7 sequence (P78324 31-370 limits assumed): as the sequence (P78324 31-370) above
Method: (§2) Initial characterization of affinity matured anti-SIRPA antibodies disclosed herein comprised acquiring antigen affinity measurements using bio-layer interferometry (BLI) on a Pall ForteBio Octet RED96 instrument. Immobilized anti-mouse IgG Fc or anti-human IgG Fc antibodies captured murine anti-SIRPA 3F79 antibody and humanized anti-SIRPA 3F79 antibody on biosensors, respectively. Single cycle kinetics were performed with 25 nM huSIRPA [which variant?] or 50 nM huSIRPB 1 flowed over captured antibody 3F79 to record traces. Data analysis was performed using ForteBio Data Analysis Software, version 9.0. Standard kinetic buffer (PBS, 0.100 BSA, 0.02% Tween-20, pH 7.2) was used for the assay and for preparing reagents. […] 50 nM of histidine-tagged human SIRPA vi or human SIRPB1 (Novoprotein, Summit, NJ, USA) were then bound to the captured anti-SIRPA antibody coated surface (200 s association time, 900 s dissociation time). […] Single-curve kinetic analysis was performed using a 1:1 interaction model to extract association and dissociation rate constants (ka and kd, respectively) for each antibody. Affinity constants (KD) were calculated from the ratio kd/ka.

rat SIRPA = target: T3, rat SIRPA; assay: ELISA, plate coated with tagged SIRPA at 1 ug/mL
Method: as §1

huSIRPA v.2 NP542970.1 = target: T8, huSIRPA v.2 NP542970.1 (human, UniProt P78324 31-373, limits assumed); assay: ELISA, plate coated with tagged SIRPA at 1 ug/mL
T8 construct: see m48; also called human SIRPA v2; human SIRPA-Fc (v2)
T8 sequence (P78324 31-373 limits assumed): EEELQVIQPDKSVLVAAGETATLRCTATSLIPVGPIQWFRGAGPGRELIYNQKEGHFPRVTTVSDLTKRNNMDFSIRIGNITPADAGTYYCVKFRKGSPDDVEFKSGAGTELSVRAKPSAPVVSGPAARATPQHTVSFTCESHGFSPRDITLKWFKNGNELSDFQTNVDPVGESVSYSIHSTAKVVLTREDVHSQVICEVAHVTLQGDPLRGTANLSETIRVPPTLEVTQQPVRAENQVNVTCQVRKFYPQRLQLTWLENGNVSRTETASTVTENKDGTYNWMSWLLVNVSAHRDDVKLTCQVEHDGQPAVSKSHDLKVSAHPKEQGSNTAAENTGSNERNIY
Method: as §1

cynoSIRPA XPO15313153.1 = target: T4, cynoSIRPA XPO15313153.1; assay: ELISA, plate coated with tagged SIRPA at 1 ug/mL
Method: as §1

[7] = target: T7, histidine-tagged human SIRPA v1 …; assay: BLI (Octet), antibody on anti-human IgG Fc sensor, His-huSIRPA in solution, single-curve 1:1 fit
Method: as §2

| SIRPA IC50 (nM), downregulation on U937 cells [1] [nM] | SIRPA Max % DR, U937 cells [1] [%] | Phagocytosis, fold increase over baseline activity [2] [fold] | SIRPA IC50 (nM), downregulation on human primary macrophages [2] [nM] | SIRPA Max % DR, human primary macrophages [2] [%] | EC50 [3] [nM] | EC50 [4] [nM] | EC50 [5] [nM] | fold increase in affinity relative to parental h3F9 [6] [fold] | binding result (rat SIRPA) | EC50 (huSIRPA v.2 NP542970.1) [nM] | EC50 (cynoSIRPA XPO15313153.1) [nM] | Kd [7] [nM] | koff [7] [s⁻¹] | kon [7] [M⁻¹ s⁻¹] | Binder |
| --- | --- | --- | --- | --- | --- | --- | --- | --- | --- | --- | --- | --- | --- | --- | --- |
| 1.17 | 69 | 1.56 | 0.0372 | 89 | 0.42 | 0.64 | 1.2 | ~10 | no binding | 0.08 | 0.879 | 0.618 | 0.000102 | 165000 | 3F9-14 (antibody, also called mAb 3F9-14; hu3F9-14) heavy: not shown light: DIQLTQSPSSLSASVGDRVTITCRASKSVSSGGYSYMHWYQQKPGKAPKLLIYLASNLESGVPSRFSGSGSGTDFTLTISSVQPEDFATYYCQHNRELPVTFGQGTKLEIKRTVAAPSVFIFPPSDEQLKSGTASVVCLLNNFYPREAKVQWKVDNALQSGNSQESVTEQDSKDSTYSLSSTLTLSKADYEKHKVYACEVTHQGLSSPVTKSFNRGEC |
| 0.187 | 76 | 1.68 | 0.0542 | 91 | 0.49 | 0.83 | 4.3 | ~10 | no binding | 0.082 | 0.107 | 0.646 | 0.000113 | 174000 | 3F9-22 (antibody, also called mAb 3F9-22; hu3F9-22) heavy: not shown light: DIQLTQSPSSLSASVGDRVTITCRASKSVSSGGYSYMHWYQQKPGKAPKLLIYLASNLESGVPSRFSGSGSGTDFTLTISSVQPEDFATYYCQHNRELPVTFGQGTKLEIKRTVAAPSVFIFPPSDEQLKSGTASVVCLLNNFYPREAKVQWKVDNALQSGNSQESVTEQDSKDSTYSLSSTLTLSKADYEKHKVYACEVTHQGLSSPVTKSFNRGEC |
